Assay results: the domain aggregation screens of Martell et al. (2025)

Assay: soluble fraction after stress (log2 fold change); higher = more stays soluble; pooled small domains, quantitative proteomics
Settings: stress: 75 degC
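Further: 20 min heating vs room temperature control held 20 min.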

Sequence | soluble fraction (log2)
HMAHSWEAIRVKLQQIIDEEDKTKPLNDDQIKEKLAEAGIPNLARRTVAKYRKLLNIPTARFRKR | -0.993
HMKALDTVLSEIPGLGPVRIKQLLKVFGSVDAIRKASLQDLQQIEGIGPKLAQTIYEYFHQP | 0.898
HMVQDSEWWRNYQSAHDYFIQNGHLNVLRSDKKNTKLYNWIVGQRSSRWNSQGRINLLNSIGFIWDT | -3.01
HMELNEIEFENLKESIIIHLEKESLSPHELVKHIQTIHPDKVTAVIQWMLENGFIKTDAGGQLTLVSK | 0.199
HMRVTEVSYDKFLDMLSGGQVTVVELQENERELYFKAADENGAERIYSTGVFPDADLQKRLSESGVTF | -0.14
HMISKQQRQALILDIIQKQSITSQEALLTELQRHHVMTTQTTVSRDIRALGIVRIKDVNGELSYQQLQ | -2.69
HMSLGSNISRLRAEKHLSQGDLAEALDVSRQSVSKWETDGSVPDLDKLVKLSRIFGVTLDELVTGTP | -0.039
HMNSVSARRSAAITAISTGRIHSQEDLVQALKKAGYPVTQATASRDIEEIGAVRIRNQKGEMVYAIS | 0.208
HMRILGIDPGYAITGYSIIDYVGNKFKLIDSGAVLTKAGVSFPLRLTKIYDDLSMIIDEYKPDA | 0.0296
HMSSGTAYATDAVNVRSGPGTSYTVLGYLSRGEKVTITGTVSNGWTQIQLPGNRLGYVSSAYLSASYPS | -0.85
HMQDREKNIAEGRDIIEHEFMRLGISLSRYDLDGLASKLNVKAGDDVLAGVGAGDIRVSQIISQLG | -0.0551
HMSIQDLMNSKDLSGFKVEMLSNEDIVKYKSMLQSSGFSESQAEQLALQRGLPTSELIKLRTRISDVAVT | 0.199
HMISAVDLMAARRKIEAGITNLQPGQAFTLPNKVGWVKRMTGGSYFIQGNGGYTASVRTISEAIQAAAMLL | -3.11
HMESVTETFLTNLINRYIADKAGYIISYPSEYRIEVLYHGGQVLDYENLRKSINTYIPAHIGYKLVTI | 0.176
HMQESTILPAQKSAISSLATSAGFSSENLKRYLLQNYGVDLKDLTRSQGAEVIKAFQSGNVSKP | 0.281
HMLVLAENMDVIFTRRTLDDHVVVDYKTTIGEMVKNDEIKGENMDELISAVEKDGYELVSSTSGEIIFLND | -1.01
HMGLNPSILVKLGNANIKTIDNLADLASDELKEILEDISITSKEADEIIMRARSSWFEEDDKKEDNI | 0.0765
HMEEQKYEYHLGDVVYLGVDKYEILGITNNIVTLYDPEFPLLNKQLDFDEFEKRVKDNYANEHLKVT | -0.324
HMNAKVVAPIPGTVLSIDIKVGDVIKIGDRLLVLEAMKMENNIASEKSGTVTAVHVKVGQQVLQNELMIEL | -2.17
HMPANVELLRTFTNKTGTKIKARIVAVSDNKVKLIRDDSKKFIVPIDSLSEEDQKYLKDWIANEVGEQ | -0.16
HMLDVNLIFSRPGFSLSAAFTLHAGGITVLRGDSGSGKTTLADLLSGAIAPQKGRILSDGDIWFDAASGIN | 0.108
HMKGKITTNWVSLTSDLGWLRSELYSSGSVLEERISNEGLIELHLENFQNDLIKLLEVEGFDLIKE | -3.18
HMNDTVGMNIRRLRKERGMTQGDLADKAGIQRETISKYESNKLTPPSYNLESIEKALKVPAGTLAQ | 0.176
HMSPTEQEKIGLFIKKLREEKNLTQEAFASLLKTSQSAVARIESGNQNITIEQLMKIGEVLNHNIVSI | -0.212
HMYLELVTKEGGSFDEPDYWGRRKLAYEIAGKTEGNYVVVKYTAEPATSDELDRVLNLNESVIRTKILRK | 0.00439
HMAMKFQDIVRQKRKELGLTQEQAARRLGVSPAAVSKWESGQSLPDTPLFAPLARLLHTDLNTLLSFE | -1.21
HMGGKWKLRILLALENSAQDALRYGEIKNIVSGITDMMLSQSLRELTADGLIERRQYQEIPPKVEYRLS | -2.31
HMNVDALVGQRGRVTQTFDPGLRLGRVAVGGDDWRAETTTDQPLREGDLVEVVSVESNTLIVRPIA | 0.0567
HMKMHKIIKERRLALNFTQEQVAKYLGVTTPAVNKWEKGISYPDISLLPALARLLDTDLNTLLSF | -4.38
HMSMNSWFVEKERDNTRIDKFLNEQMADISRSYIQKLIKDDLVTVDLRPVKANYKVKEGDRVEVTLPEPV | 0.000708
